# Laboratory results reported in article PMC2173952.
# Assays:
# [1] = biological target: cpSRP54-his (A. thaliana) (UniProt P37107); assay: co-IP
# Trx-cpFtsY = Trx-cpFtsY (UniProt O80842); assay: pull-down
# Chain of UniProt O80842 (O80842 41-366): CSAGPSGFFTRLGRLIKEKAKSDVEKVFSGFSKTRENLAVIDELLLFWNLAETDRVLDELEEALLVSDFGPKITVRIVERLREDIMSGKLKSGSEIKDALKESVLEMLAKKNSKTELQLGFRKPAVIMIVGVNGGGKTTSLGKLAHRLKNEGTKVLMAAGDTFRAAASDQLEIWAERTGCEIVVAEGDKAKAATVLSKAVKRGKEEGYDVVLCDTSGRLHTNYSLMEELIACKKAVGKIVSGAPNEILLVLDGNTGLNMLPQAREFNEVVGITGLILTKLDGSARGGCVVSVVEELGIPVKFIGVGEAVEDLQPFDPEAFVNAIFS
# Chain of UniProt P37107 (P37107 76-564): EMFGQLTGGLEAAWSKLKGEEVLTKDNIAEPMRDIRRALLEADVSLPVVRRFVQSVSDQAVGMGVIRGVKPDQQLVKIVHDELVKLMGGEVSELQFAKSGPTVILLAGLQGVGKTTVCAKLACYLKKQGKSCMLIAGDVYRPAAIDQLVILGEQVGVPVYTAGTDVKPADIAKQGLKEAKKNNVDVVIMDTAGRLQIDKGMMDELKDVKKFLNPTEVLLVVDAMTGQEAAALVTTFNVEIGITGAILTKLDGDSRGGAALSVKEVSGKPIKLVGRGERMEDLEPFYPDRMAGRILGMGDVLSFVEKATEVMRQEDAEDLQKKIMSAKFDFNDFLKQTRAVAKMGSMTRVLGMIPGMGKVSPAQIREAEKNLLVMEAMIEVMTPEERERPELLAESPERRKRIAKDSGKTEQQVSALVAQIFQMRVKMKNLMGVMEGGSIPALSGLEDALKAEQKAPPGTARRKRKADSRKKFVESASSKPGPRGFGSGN
substance,measurement,setting,value
ALB3 (from UniProt Q8LBP4 57-462) (natural protein),fold change of the coprecipitate with cpFtsY added against cpSRP alone,[1],> 2 fold
same,fold change of coprecipitated ALB3 with cpSRP added against cpFtsY alone,Trx-cpFtsY,> 6 fold
